Experimental data published in patent US7202050B2, “Methods for measuring phosphatase activity” (priority 2002, dated 2007).

Biological target: T1, V8 protease (Staphylococcus aureus, UniProt P0C1U8)
T1 construct: purchased CalBiochem (San Diego, Calif.)
Format: biochemical
Conditions: 30 μM peptide pre-incubated with 40 units CKII 18 hrs at 30° C. in absence of ATP; 1 unit V8 protease, room temperature, in less than three hours; HPLC (FIG. 3)
Experimental: The peptide (30 μM) was incubated at room temperature with V8 protease (0.1 units) in a buffer containing 20 mM Tris-HCl, 50 mM KCl, 10 mM MgCl2, pH 7.5 (CKII buffer) and aliquots were removed at various time points and flash-frozen in a dry-ice/methanol bath. Products of the protease digestion were then separated on the HPLC column using a 0% to 50% acetonitrile/water gradient in the presence of 0.1% TFA. Peptide was detected using both absorbance at 250 nm and by fluorescence of the rhodamine label using 530 nm excitation and 590 nm emission filters.
Subsequently, 1 unit of V8 protease was added to each sample and the samples were incubated at room temperature. Aliquots were removed at various time points and flash-frozen in a dry-ice/methanol bath for HPLC analysis as described above.

T1 sequence (P0C1U8 69-336): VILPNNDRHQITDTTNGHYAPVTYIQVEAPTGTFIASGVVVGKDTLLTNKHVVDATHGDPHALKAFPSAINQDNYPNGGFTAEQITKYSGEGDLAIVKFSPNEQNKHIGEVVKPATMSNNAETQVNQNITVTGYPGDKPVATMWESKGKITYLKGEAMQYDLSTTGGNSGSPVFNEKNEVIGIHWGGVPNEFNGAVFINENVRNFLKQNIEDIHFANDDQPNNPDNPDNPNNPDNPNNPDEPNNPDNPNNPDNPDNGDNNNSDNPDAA

With “TMR-Asp-Glu-Ser-Glu-Glu-Glu-Asp-Lys(Nε-Flsn)-COOH (tetramethylrhodamine-DESEEEDK(fluorescein)-OH) [unphosphorylated peptide]” the “peptide digested by V8 protease” value was 80%.
